The values that follow come from US20240174741A1 (IMMUNOME, published 2024).

Test [1] deals with T1, human interleukin-38 (IL-38) (human, UniProt Q8WWZ1 1-152).
T1 construct: The Adipogen protein is called full length; also called IL1F10/IL38; IL1F10
T1 sequence (looked up): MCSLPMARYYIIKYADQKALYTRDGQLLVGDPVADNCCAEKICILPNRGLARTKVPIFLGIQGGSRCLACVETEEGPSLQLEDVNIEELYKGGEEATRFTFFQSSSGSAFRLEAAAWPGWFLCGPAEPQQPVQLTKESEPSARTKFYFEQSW
In words: CDI HuProt native protein microarray, IL-1 family members. As for the experimental part:
(§1) To confirm specificity to IL-38, several lead candidate antibodies (CD1-M3, CD1-M8, NZB-M8) were analyzed in a High-Spec Cross-reactivity Assay using native HuProt arrays (CDI Laboratories). […] of antibody was incubated overnight in a cold room, washed, and probed with anti-human secondary antibodies. Fluorescence intensity (F635) as an indicator of binding was measured for each spot. CDI software quantified the specificity of the antibody to each spot based on a Z-score. Z-score is defined as [F635−(Average F635 on array)]/(Standard deviation of F635 on array). S-score is defined as the difference between the Z-score of a given protein and the Z-score of the next highest protein.

Another test addresses T2, IL-1α (human, UniProt P01583 1-271, limits assumed).
T2 sequence (looked up): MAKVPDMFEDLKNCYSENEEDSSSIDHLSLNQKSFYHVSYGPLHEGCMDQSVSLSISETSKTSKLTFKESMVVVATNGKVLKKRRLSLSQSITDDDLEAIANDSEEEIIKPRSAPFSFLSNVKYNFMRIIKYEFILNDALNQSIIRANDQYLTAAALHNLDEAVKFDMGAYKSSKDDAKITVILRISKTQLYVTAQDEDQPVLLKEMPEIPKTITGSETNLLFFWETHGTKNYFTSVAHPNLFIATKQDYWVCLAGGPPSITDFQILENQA
The test is described as above. The method, then:
as §1

The next test deals with IL-1β (human, UniProt P01584 1-269, limits assumed). Described as above. The method, then:
as §1

The target in the next test is T3, IL-18 (human, UniProt Q14116 1-193, limits assumed).
T3 sequence (looked up): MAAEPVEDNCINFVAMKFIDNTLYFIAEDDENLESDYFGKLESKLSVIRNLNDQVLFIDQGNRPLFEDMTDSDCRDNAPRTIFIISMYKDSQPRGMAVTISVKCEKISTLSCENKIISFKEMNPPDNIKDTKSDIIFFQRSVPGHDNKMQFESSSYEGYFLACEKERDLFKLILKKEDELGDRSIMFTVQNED
The test is described as above. The method, then:
as §1

For the next test, the target named is T4, IL-36Ra (human, UniProt Q9UBH0 1-155, limits assumed).
T4 sequence (looked up): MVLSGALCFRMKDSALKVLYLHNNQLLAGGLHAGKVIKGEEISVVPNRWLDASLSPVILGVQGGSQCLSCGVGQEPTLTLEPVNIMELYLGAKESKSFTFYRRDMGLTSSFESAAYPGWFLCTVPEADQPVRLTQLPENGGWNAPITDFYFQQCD
Described as above. As for the experimental part:
as §1

The next test deals with T5, IL-36a (human, UniProt Q9UHA7 1-158, limits assumed).
T5 sequence (looked up): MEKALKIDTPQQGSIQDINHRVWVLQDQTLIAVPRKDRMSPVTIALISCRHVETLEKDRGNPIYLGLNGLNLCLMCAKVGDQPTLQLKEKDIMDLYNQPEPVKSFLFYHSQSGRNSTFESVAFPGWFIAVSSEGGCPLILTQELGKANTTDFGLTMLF
The test is described as above. The method, then:
as §1

Another test deals with T6, IL-37 (human, UniProt Q9NZH6 1-218, limits assumed).
T6 sequence (looked up): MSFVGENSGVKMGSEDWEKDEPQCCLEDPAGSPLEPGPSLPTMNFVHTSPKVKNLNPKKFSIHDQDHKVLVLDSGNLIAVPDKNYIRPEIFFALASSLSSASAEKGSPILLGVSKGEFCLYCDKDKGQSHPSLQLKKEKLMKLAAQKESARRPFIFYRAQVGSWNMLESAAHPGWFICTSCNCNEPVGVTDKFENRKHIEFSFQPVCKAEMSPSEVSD
Described as above. The method, then:
as §1

In another test the target is T7, IL-36g (human, UniProt Q9NZH8 1-169, limits assumed).
T7 sequence (looked up): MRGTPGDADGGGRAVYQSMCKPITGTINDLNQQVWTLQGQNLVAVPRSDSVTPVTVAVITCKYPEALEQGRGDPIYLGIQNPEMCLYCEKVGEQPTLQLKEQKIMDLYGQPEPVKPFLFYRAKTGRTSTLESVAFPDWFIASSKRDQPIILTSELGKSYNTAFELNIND
The test is described as above. The method, then: as §1

Another test concerns the target T8, IL-33 (human, UniProt O95760 1-270, limits assumed).
T8 sequence (looked up): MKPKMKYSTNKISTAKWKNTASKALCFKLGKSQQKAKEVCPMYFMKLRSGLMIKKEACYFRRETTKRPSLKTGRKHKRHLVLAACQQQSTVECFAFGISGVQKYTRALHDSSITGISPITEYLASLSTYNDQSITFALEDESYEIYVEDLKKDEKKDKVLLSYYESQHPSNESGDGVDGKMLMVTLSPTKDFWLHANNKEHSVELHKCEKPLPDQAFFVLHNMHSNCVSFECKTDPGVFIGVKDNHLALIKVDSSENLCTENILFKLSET
The test is described as above. As for the experimental part:
as §1

A further test deals with T9, Hnrnph1.
T9 construct: The lower-case gene symbol may mean a mouse clone
T9 sequence (P31943 1-449, species assumed, looked up): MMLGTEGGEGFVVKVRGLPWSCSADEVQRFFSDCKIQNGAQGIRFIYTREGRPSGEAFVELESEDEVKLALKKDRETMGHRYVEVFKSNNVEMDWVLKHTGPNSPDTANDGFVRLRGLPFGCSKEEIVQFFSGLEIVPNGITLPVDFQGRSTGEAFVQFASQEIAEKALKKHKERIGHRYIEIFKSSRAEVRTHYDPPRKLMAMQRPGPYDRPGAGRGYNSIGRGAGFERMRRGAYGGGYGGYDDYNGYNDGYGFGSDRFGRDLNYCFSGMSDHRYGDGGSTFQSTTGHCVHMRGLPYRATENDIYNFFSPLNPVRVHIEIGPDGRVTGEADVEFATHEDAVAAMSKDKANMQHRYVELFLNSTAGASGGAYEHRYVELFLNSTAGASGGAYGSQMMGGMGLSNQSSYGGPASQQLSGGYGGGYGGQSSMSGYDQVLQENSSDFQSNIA
Description: CDI HuProt native protein microarray (High-Spec cross-reactivity assay). The method, then: as §1

B1: CD1-M3 (antibody, V domains shown)
VH: EVQLQQSGPELVKPGASVKIPCKASGYTFTDYNMDWVKQSHGKSLEWIGDINPNNGGTIYNQKFKGKATLTVDKSSSTAYMELRSLTSEDTAVYYCSRPYYGYFAYWGQGTLVTVSA
VL: DVVMTQSPLSLPVSLGDQASISCRSSQSLVHSHENTFLHWYLQKPGQSPKLLIYRVSNRFSGVPDRFSGSGSGTDFTLKISRVEAEDLGVYFCSQSTHVPLTFGAGTKLELK
notes: Mouse monoclonal from a hybridoma of a CD-1 mouse immunized with full length recombinant IL-38
Consider B1, for which the Z-score in test [1] is 140; in the test with IL-1α, -0.013; in the test with IL-1β, -0.016; with IL-18, -0.016; with IL-36Ra, -0.017; with IL-36a it was -0.008. The Z-score is -0.013 in the test with IL-37, -0.017 in the test with IL-36g, -0.02 with IL-33 and 10.6 in the test with Hnrnph1. In addition, in the test with Hnrnph1, the F635 was determined as 4130. Moreover, the S-Score in the test with Hnrnph1 was determined as 5.
